Assay results from US20220002363A1, “COMPOSITIONS AND METHODS FOR TREATING PULMONARY DISEASE” (United States Government As Represented By The Department …, priority 2020, published 2022).
Changes are numbered by the printed parent chain.

Target: T1, WT-sFasL (Homo sapiens, UniProt P48023)
T1 construct: made in house
T1 sequence (P48023 103-281): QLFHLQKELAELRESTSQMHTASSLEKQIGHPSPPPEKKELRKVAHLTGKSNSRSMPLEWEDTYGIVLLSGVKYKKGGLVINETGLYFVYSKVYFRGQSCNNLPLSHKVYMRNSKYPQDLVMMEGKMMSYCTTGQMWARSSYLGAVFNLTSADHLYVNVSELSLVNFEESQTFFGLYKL
Assay: Annexin-V externalization (translocation) assay in SAEC with WT:mut sFasL mixtures
Type: cell-based
Settings: WT:mut sFasL molar ratios of 1:27 and 1:81
Protocol: FIGS. 2A-D show the mut-sFasL has inhibitory properties. Highly Fas-sensitive Jurkat cells (FIG. 2A), primary human lung small airway epithelial cells (SAEC, FIG. 2B) or murine lung epithelial cells (LA4, FIG. 2D) were incubated with serial dilutions of mutated FasL, (mut sFasL). […] As a confirmatory test, the experiment was repeated using SAEC and an annexin-V translocation assay (FIG. 2C). WT=wild type (no mutant). […] Each dot represents individual data; lines represent means±SD. *=P<0.05; **=P<0.01, ***P<0.001 when compared to WT. One way ANOVA with SIdak's post hoc analysis. […]
Measurements of apoptotic cascade activation. Apoptotic cascade activation was assessed by determining caspase 3/7 activity and Annexin V externalization. Caspase-3/7 activity was measured using a commercial substrate (Caspase-Glo 3/7 Assay, Promega, Madison, Wis., Cat #G8090) following manufacturer's instructions. Annexin V was measured with a luminescent commercial assay that allows for measurement of annexin V externalization in adherent cells (RealTime-Glo Annexin V assay, Promega, Madison, Wis., Cat #JA1011). Luminescence was measured with a Synergy H4 Microplate Reader (BioTek, Winooski, Vt.). […]

B1: mut-sFasL: mutant sFasL molecule in which 8 charged amino acids in the 26 amino acid stalk region were changed to alanine (protein)
chain: T1 sequence (P48023 103-281) with H4A, K7A, E8A, E11A, R13A, E14A, H20A, E26A
Annexin V translocation: significantly reduced
